Reference: publication PMC11703230 (bioRxiv, 2025)

Tests used:
Experiment in all cases: cross-linking
[1] = target: Sir2 (untagged final), full-length (S. cerevisiae, UniProt P06700 1-562)
cross-linking = target: the molecule itself
[2] = target: Sir3 winged helix deletion (Sir3 1-850) (S. cerevisiae, UniProt P06701 1-850)
Chain of Sir3 winged helix deletion (Sir3 1-850) (P06701 1-850, stated change not applied): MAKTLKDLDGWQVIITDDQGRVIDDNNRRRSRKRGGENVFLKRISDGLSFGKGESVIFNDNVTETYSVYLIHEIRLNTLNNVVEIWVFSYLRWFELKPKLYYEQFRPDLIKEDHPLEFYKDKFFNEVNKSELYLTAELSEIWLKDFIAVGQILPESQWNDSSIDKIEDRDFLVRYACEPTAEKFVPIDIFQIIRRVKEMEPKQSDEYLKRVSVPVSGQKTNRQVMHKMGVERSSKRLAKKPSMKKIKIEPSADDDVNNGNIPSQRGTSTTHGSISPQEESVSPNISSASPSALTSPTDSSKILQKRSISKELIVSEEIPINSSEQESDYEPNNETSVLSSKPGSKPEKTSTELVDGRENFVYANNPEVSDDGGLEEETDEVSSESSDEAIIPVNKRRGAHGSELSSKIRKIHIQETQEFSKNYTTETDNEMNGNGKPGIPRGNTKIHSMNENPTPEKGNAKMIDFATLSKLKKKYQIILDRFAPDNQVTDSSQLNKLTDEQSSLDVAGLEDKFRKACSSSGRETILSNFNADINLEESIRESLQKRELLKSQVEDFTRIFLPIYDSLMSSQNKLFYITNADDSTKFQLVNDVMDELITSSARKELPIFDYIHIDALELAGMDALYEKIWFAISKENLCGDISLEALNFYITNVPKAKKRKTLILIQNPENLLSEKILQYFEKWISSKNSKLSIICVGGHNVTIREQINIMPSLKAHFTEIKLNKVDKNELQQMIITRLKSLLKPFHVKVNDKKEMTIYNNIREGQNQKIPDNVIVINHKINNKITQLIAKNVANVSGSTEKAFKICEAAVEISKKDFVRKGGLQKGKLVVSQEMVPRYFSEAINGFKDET

Chain of Sir2 (untagged final), full-length (P06700 whole entry): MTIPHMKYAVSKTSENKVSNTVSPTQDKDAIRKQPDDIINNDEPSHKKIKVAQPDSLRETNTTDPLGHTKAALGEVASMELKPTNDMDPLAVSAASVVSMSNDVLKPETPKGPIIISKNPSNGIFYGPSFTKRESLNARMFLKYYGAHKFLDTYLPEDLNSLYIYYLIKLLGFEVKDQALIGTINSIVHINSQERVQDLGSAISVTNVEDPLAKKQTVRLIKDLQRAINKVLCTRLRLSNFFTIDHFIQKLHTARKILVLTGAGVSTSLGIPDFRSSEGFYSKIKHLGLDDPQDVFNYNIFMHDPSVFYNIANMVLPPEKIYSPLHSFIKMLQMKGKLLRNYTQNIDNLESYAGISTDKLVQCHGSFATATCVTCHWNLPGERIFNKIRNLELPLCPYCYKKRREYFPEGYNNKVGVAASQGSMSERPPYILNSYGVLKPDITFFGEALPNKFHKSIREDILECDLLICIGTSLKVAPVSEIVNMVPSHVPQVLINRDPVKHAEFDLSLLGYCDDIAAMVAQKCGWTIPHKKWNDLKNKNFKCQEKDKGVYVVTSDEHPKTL

Binder	binding result [1]	binding result (cross-linking)	binding result [2]
MBP-Sir4(1150-1358) (domain or fragment, S. cerevisiae, UniProt P11978 1150-1358, looked up) KTLPEKKQFDSIFNSNKAKIIPGNGKHASENISLSFSRPASYGYFSVGKRVPIVEDRRVKQLDDITDSNTTEILTSVDVLGTHSQTGTQQSNMYTSTQKTELEIDNKDSVTECSKDMKEDGLSFVDIVLSKAASALDEKEKQLAVANEIIRSLSDEVMRNEIRITSLQGDLTFTKKCLENARSQISEKDAKINKLMEKDFQVNKEIKPY	binds		
MBP-Sir4(744-1358) (domain or fragment, S. cerevisiae, UniProt P11978 744-1358, looked up) PGKMELVYVSDSDDSSSDNDSLTDLESLSSGESNEIKVTNDLDTSAEKDQIQAGKWFDPVLDWRKSDRELTKNILWRIADKTTYDKETITDLIEQGIPKHSYLSGNPLTSVTNDICSVENYETSSAFFYQQVHKKDRLQYLPLYAVSTFENTNNTEKNDVTNKNINIGKHSQEQNSSSAKPSQIPTVSSPLGFEETKLSTTPTKSNRRVSHSDTNSSKPKNTKENLSKSSWRQEWLANLKLISVSLVDEFPSELSDSDRQIINEKMQLLKDIFANNLKSAISNNFRESDIIILKGEIEDYPMSSEIKIYYNELQNKPDAKKARFWSFMKTQRFVSNMGFDIQKSCEPVSISTSVKPHVVEPEHMADAKIMPKDILQITKKPLMVKNVKPSSPPDVKSLVQLSTMETKTLPEKKQFDSIFNSNKAKIIPGNGKHASENISLSFSRPASYGYFSVGKRVPIVEDRRVKQLDDITDSNTTEILTSVDVLGTHSQTGTQQSNMYTSTQKTELEIDNKDSVTECSKDMKEDGLSFVDIVLSKAASALDEKEKQLAVANEIIRSLSDEVMRNEIRITSLQGDLTFTKKCLENARSQISEKDAKINKLMEKDFQVNKEIKPY		binds	binds
